Measurements from patent US20140056893A1 (Eli Lilly, published 2014).

Target: human glucagon-like peptide 1 receptor (hGLP-1R) (human, UniProt P43220 24-463)
Assay: cell-based or functional assay

In vitro potency (EC50), hGLP-1R-stimulated cAMP functional assay (Alpha Screen) in hGLP-1R-HEK293 cells: 0.067 nM
B1: Homodimeric protein wherein the amino acid sequence of each polypeptide of said protein is SEQ ID NO: 1 (Fc fusion)
chain: HGEGTFTSDVSSYLEEQAAKEFIAWLVAGGGGGGGSGGGGSGGGGSESKYGPPCPPCPAPEAAGGPSVFLFPPKPKDTLMISRTPEVTCVVVDVSCEDPEVQFNWYVDGVEVHNAKTKPREEQFNSTYRVVSVLTVLHQDWLNGKEYKCKVSNKGLPSSIEKTISKAKGQPREPQVYTLPPSCEEMTKNQVSLTCLVKGFYPSDIAVEWESNGQPENNYKTTPPVLDSDGSFFLYSRLTVDKSRWQEGNVFSCSVMHEALHNHYTQKSLSLSLGGGGGSGGGGSGGGGSAHPIPDSSPLLQFGGQVRQRYLYTDDAQQTECHLEIREDGTVGCAADQSPESLLQLKALKPGVIQILGVKTSRFLCQRPDGALYGSLHFDPEACSFREDLKEDGYNVYQSEAHGLPLHLPGDKSPHRKPAPRGPARFLPLPGLPPALPEPPGILAPQPPDVGSSDPLRLVEPSCLRSPSFE
